Assays:
[1] = biological target: Full-length (FL) wild-type human (Hs) FN3K, purified from insect cells (human) (UniProt Q9H479); experiment: SEC; preparative gel filtration during purification from Sf9 cells; HiLoad 16/60 Superdex 75; 10 mM HEPES pH 7.5, 200 mM NaCl, 0.5 mM TCEP; monomeric and dimeric peaks
[2] = biological target: the molecule itself; experiment: crystal structure; HsFN3KΔ crystals, space group P212121, two molecules in the asymmetric unit; apo and soaked with nucleotides and DMF

Row | Molecule | stoichiometry N [1] | binding result [2]
1 | Full-length (FL) wild-type human (Hs) FN3K, purified from insect cells (from UniProt Q9H479 1-309) (enzyme) | 2 | –
2 | HsFN3KΔ (human FN3K with internal loop truncation: amino acids 117-138 replaced with a GSS linker) (enzyme, intermolecular disulfide between Cys24 of each protomer, human FN3K, Gene ID 64122, residues before the truncated loop (117-138); linker that replaces amino acids 117-138; human FN3K, Gene ID 64122, residues after the truncated loop (117-138); Two molecules in the asymmetric unit, domain-swapped dimer; also called apo-HsFN3K; source: E. coli Rosetta 2 (DE3), purified (Ni-NTA, cation exchange, TEV cleavage, SEC); not shown: His6, N-terminal, cleaved) MEQLLRAELRTATLRAFGGPGAGCISEGRAYDTDAGPVFVKVNRRTQARQMFEGEVASLEALRSTGLVRVPRPMKVIDLPGGGAAFVMEHLKMKSLSSQASKLGEQMADLHLYNQKGSSYVDKFGFHTVTCCGFIPQVNEWQDDWPTFFARHRLQAQLDLIEKDYADREARELWSRLQVKIPDLFCGLEIVPALLHGDLWSGNVAEDDVGPIIYDPASFYGHSEFELAIALMFGGFPRSFFTAYHRKIPKAPGFDQRLLLYQLFNYLNHWNHFGREYRSPSLGTMRRLLK | – | binds

— publication PMC11754801, “The molecular basis of Human FN3K mediated phosphorylation of glycated substrates” (Nature Communications, 2025)
